Experimental data published in IntAct's records for PubMed 12796778.

B1: Nuclear distribution protein nudE-like 1 (Mus musculus), Q9ERR1 (parent)
chain: MDGEDIPDFSSLKEETAYWKELSLKYKQSFQEARDELVEFQEGSRELEAELEAQLVQAEQRNRDLQADNQRLKYEVEALKEKLEHQYAQSYKQVSVLEDDLSQTRAIKEQLHKYVRELEQANDDLERAKRATIVSLEDFEQRLNQAIERNAFLESELDEKESLLVSVQRLKDEARDLRQELAVRERQQEVTRKSAPSSPTLDCEKMDSAVQASLSLPATPVGKGTENSFPSPKAIPNGFGTSPLTPSARISALNIVGDLLRKVGALESKLAACRNFAKDQASRKSYVPGSVNCGVMNSNGPECPRSGRATFFHKGAVNGFDPAPPPPGLGSSRPSSAPGMLPLSV

Variants of: B1
Settings: with 1433e_mouse Ywhae
In the case of MDGEDIPDFSSLKEETAYWKELSLKYKQSFQEARDELVEFQEGSRELEAELEAQLVQAEQRNRDLQADNQRLKYEVEALKEKLEHQYAQSYKQVSVLEDDLSQTRAIKEQLHKYVRELEQANDDLERAKRATIVSLEDFEQRLNQAIERNAFLESELDEKESLLVSVQRLKDEARDLRQELAVRERQQEVTRKSAPSAPTLDCEKMDSAVQASLSLPATPVGKGTENSFPSPKAIPNGFGTSPLTPSARISALNIVGDLLRKVGALESKLAACRNFAKDQASRKSYVPGSVNCGVMNSNGPECPRSGRATFFHKGAVNGFDPAPPPPGLGSSRPSSAPGMLPLSV [S198A], the “effect of a mutation on the interaction” value is reported as “decreasing interaction strength”.
In the case of MDGEDIPDFSSLKEETAYWKELSLKYKQSFQEARDELVEFQEGSRELEAELEAQLVQAEQRNRDLQADNQRLKYEVEALKEKLEHQYAQSYKQVSVLEDDLSQTRAIKEQLHKYVRELEQANDDLERAKRATIVSLEDFEQRLNQAIERNAFLESELDEKESLLVSVQRLKDEARDLRQELAVRERQQEVTRKSAPSSPTLDCEKMDSAVQASLSLPATPVGKGTENSFPAPKAIPNGFGTSPLTPSARISALNIVGDLLRKVGALESKLAACRNFAKDQASRKSYVPGSVNCGVMNSNGPECPRSGRATFFHKGAVNGFDPAPPPPGLGSSRPSSAPGMLPLSV [S231A], the “effect of a mutation on the interaction” value is reported as “decreasing interaction strength”.
In the case of MDGEDIPDFSSLKEETAYWKELSLKYKQSFQEARDELVEFQEGSRELEAELEAQLVQAEQRNRDLQADNQRLKYEVEALKEKLEHQYAQSYKQVSVLEDDLSQTRAIKEQLHKYVRELEQANDDLERAKRATIVSLEDFEQRLNQAIERNAFLESELDEKESLLVSVQRLKDEARDLRQELAVRERQQEVTRKSAPSSPTLDCEKMDSAVQASLSLPAAPVGKGTENSFPSPKAIPNGFGTSPLTPSARISALNIVGDLLRKVGALESKLAACRNFAKDQASRKSYVPGSVNCGVMNSNGPECPRSGRATFFHKGAVNGFDPAPPPPGLGSSRPSSAPGMLPLSV [T219A], the “effect of a mutation on the interaction” value is reported as “decreasing interaction strength”.
MDGEDIPDFSSLKEETAYWKELSLKYKQSFQEARDELVEFQEGSRELEAELEAQLVQAEQRNRDLQADNQRLKYEVEALKEKLEHQYAQSYKQVSVLEDDLSQTRAIKEQLHKYVRELEQANDDLERAKRATIVSLEDFEQRLNQAIERNAFLESELDEKESLLVSVQRLKDEARDLRQELAVRERQQEVTRKSAPSAPTLDCEKMDSAVQASLSLPAAPVGKGTENSFPAPKAIPNGFGTSPLTPSARISALNIVGDLLRKVGALESKLAACRNFAKDQASRKSYVPGSVNCGVMNSNGPECPRSGRATFFHKGAVNGFDPAPPPPGLGSSRPSSAPGMLPLSV [S198A;T219A;S231A] was tested, and the “effect of a mutation on the interaction” value was “disrupting interaction strength”.
